# Results taken from paper PMC5220088.
# Where no end group is shown, it is not given here. [ ]: non-standard residue; d: D form. The star is where a group is joined. EDDnp = O=[N+]([O-])c1ccc(NCCN*)c([N+](=O)[O-])c1; 2Abz = Nc1ccccc1C(=O)O
# Target: protease isolated from Eupenicillium javanicum (metalloprotease, 30 kDa) (Eupenicillium javanicum)
row,"KM of the hydrolysis of the FRET peptide by the purified protease (Michaelis-Menten, pH 6.0, 45°C) [mM]",Binder
1,0.012,[2Abz]KFRSSKQ-EDDnp [Abz-KFRSSKQ-EDDnp]
2,0.004,[2Abz]KLQSSKQ-EDDnp [Abz-KLQSSKQ-EDDnp]
3,0.01,[2Abz]VLRSSKQ-EDDnp [Abz-VLRSSKQ-EDDnp]

# Target: protease isolated from Eupenicillium javanicum (metalloprotease, 30 kDa) (Eupenicillium javanicum)
# Remark: another data set of the same source
row,"KM of the hydrolysis of the FRET peptide by the purified protease (Michaelis-Menten, pH 6.0, 45°C) [mM]",Binder
1,0.007,[2Abz]KLRYSKQ-EDDnp [Abz-KLRYSKQ-EDDnp]
2,0.003,[2Abz]KLRSYKQ-EDDnp [Abz-KLRSYKQ-EDDnp]
3,0.003,[2Abz]KLRSIKQ-EDDnp [Abz-KLRSIKQ-EDDnp]
